Experimental findings from PMC5932559, “Defective mitochondrial protease LonP1 can cause classical mitochondrial disease” (Human Molecular Genetics, 2018) are described below.

B2: p.(Glu733Lys) LonP1 mutant lacking the mitochondrial targeting sequence, C-terminal 6xHis (enzyme, human, UniProt P36776-1 115-959, looked up)
chain: MTIPDVFPHLPLIAITRNPVFPRFIKIIEVKNKKLVELLRRKVRLAQPYVGVFLKRDDSNESDVVESLDEIYHTGTFAQIHEMQDLGDKLRMIVMGHRRVHISRQLEVEPEEPEAENKHKPRRKSKRGKKEAEDELSARHPAELAMEPTPELPAEVLMVEVENVVHEDFQVTEEVKALTAEIVKTIRDIIALNPLYRESVLQMMQAGQRVVDNPIYLSDMGAALTGAESHELQDVLEETNIPKRLYKALSLLKKEFELSKLQQRLGREVEEKIKQTHRKYLLQEQLKIIKKELGLEKDDKDAIEEKFRERLKELVVPKHVMDVVDEELSKLGLLDNHSSEFNVTRNYLDWLTSIPWGKYSNENLDLARAQAVLEEDHYGMEDVKKRILEFIAVSQLRGSTQGKILCFYGPPGVGKTSIARSIARALNREYFRFSVGGMTDVAEIKGHRRTYVGAMPGKIIQCLKKTKTENPLILIDEVDKIGRGYQGDPSSALLELLDPEQNANFLDHYLDVPVDLSKVLFICTANVTDTIPEPLRDRMEMINVSGYVAQEKLAIAERYLVPQARALCGLDESKAKLSSDVLTLLIKQYCRESGVRNLQKQVEKVLRKSAYKIVSGEAKSVEVTPENLQDFVGKPVFTVERMYDVTPPGVVMGLAWTAMGGSTLFVETSLRRPQDKDAKGDKDGSLEVTGQLGEVMKESARIAYTFARAFLMQHAPANDYLVTSHIHLHVPEGATPKDGPSAGCTIVTALLSLAMGRPVRQNLAMTGEVSLTGKILPVGGIKEKTIAAKRAGVTCIVLPAENKKDFYDLAAFITEGLEVHFVEHYREIFDIAFPDEQAEALAVER
notes: A variant found in a patient and in ExAC; also called E733K; hGlu733Lys

In one data set the target is T1, TFAM (UniProt Q00059 43-246, NT-547-maleimide dye on cysteine (for microscale thermophoresis)).
T1 chain: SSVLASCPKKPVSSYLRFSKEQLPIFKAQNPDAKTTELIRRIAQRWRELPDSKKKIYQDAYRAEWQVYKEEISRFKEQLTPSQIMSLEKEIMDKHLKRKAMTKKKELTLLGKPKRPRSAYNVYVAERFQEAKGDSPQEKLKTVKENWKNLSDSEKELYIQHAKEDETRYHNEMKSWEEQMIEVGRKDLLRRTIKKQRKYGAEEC
Put plainly: MST; 4 mM AMP-PNP.

Data set [1] concerns the molecule itself. Put plainly: SEC; Superose 6 Increase 10/300; 20 mM Tris-HCl pH 8.0, 10% glycerol, 2 mM DTT, 50 mM NaCl, 10 mM MgCl2, samples incubated 10 min at 37°C with ATP (1 mM in the methods, 4 mM in the legend); fractions on SDS-PAGE, size calibration curve; in 1 M NaCl without ATP higher-order oligomers were largely prevented. Background: SEC sorts molecules by how far they enter the pores of the column.

For data set [2], the target named is T2, 1:1 mixture of wild-type and p.(Tyr565His) LonP1, oligomerised by dialysis from high salt (human, UniProt P36776-1 115-959; P36776-1 115-959, p.(Tyr565His)).
T2 construct: as the chain of m1; as the chain of m2; also called WT/Y565H; WT + Y565H; source: equimolar purified LonP1 forms mixed in high salt, oligomerised by dialysis
Put plainly: MST; as a3, with 4 mM AMP-PNP; LonP1 forms or 1:1 mixtures titrated (2.3-4650 nM) against labelled TFAM; 24°C. To be noted: both partners purified.

Data set [3] addresses T3, 1:1 mixture of wild-type and p.(Glu733Lys) LonP1, oligomerised by dialysis from high salt (human, UniProt P36776-1 115-959; P36776-1 115-959, p.(Glu733Lys)).
T3 construct: as the chain of m1; as the chain of m3; The make-up of the oligomers (heterohexamers or separate homohexamers) was not determined; also called WT/E733K; WT + E733K; source: equimolar purified LonP1 forms mixed in high salt, oligomerised by dialysis
Described as above. Conditions: both partners purified.

Data set [4] has as its target T4, wild-type LonP1 lacking the mitochondrial targeting sequence, C-terminal 6xHis (human, UniProt P36776-1 115-959).
T4 construct: called the mature protein; Hexamer at low salt with ATP, mostly monomer in 1 M NaCl without ATP; also called WT; LonP1 wild-type; source: pET-20b, induced with 1 mM IPTG, purified (His-Select nickel, HiTrap Heparin, MonoQ, Superdex 200)
T4 sequence (looked up): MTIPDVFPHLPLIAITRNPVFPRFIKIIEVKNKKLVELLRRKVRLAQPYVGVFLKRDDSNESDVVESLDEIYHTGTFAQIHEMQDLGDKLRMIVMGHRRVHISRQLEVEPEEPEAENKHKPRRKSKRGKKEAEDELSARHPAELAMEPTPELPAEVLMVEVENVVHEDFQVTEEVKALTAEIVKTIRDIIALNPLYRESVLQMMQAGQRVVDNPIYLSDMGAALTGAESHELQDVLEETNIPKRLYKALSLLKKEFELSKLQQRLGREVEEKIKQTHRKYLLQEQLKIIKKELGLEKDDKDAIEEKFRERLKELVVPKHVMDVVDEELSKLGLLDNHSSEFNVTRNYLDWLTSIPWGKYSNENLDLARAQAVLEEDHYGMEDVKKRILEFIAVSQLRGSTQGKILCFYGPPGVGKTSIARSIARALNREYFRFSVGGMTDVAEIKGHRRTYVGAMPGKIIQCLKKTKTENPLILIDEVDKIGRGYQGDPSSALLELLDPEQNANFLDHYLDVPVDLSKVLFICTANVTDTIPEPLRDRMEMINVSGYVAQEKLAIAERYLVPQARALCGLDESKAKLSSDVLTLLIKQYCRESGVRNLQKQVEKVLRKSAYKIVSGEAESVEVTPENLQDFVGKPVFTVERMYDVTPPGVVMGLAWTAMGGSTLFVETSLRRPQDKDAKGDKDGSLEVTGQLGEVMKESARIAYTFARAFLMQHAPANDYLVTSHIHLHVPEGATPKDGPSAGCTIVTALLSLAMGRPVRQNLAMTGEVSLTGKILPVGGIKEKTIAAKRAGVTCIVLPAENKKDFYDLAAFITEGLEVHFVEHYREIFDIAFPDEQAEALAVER
Put plainly: MST; TFAM labelled with NT-547-maleimide, unlabelled LonP1 titrated (2.3-4650 nM); MST buffer (50 mM Tris-HCl pH 8.0, 10 mM MgCl2, 10% glycerol) without nucleotide; 24°C; Monolith NT.115. To be noted: both partners purified.

Data set [5] addresses B2. The description is as above. To be noted: both partners purified.

B1: wild-type LonP1 lacking the mitochondrial targeting sequence, C-terminal 6xHis (enzyme)
chain: MTIPDVFPHLPLIAITRNPVFPRFIKIIEVKNKKLVELLRRKVRLAQPYVGVFLKRDDSNESDVVESLDEIYHTGTFAQIHEMQDLGDKLRMIVMGHRRVHISRQLEVEPEEPEAENKHKPRRKSKRGKKEAEDELSARHPAELAMEPTPELPAEVLMVEVENVVHEDFQVTEEVKALTAEIVKTIRDIIALNPLYRESVLQMMQAGQRVVDNPIYLSDMGAALTGAESHELQDVLEETNIPKRLYKALSLLKKEFELSKLQQRLGREVEEKIKQTHRKYLLQEQLKIIKKELGLEKDDKDAIEEKFRERLKELVVPKHVMDVVDEELSKLGLLDNHSSEFNVTRNYLDWLTSIPWGKYSNENLDLARAQAVLEEDHYGMEDVKKRILEFIAVSQLRGSTQGKILCFYGPPGVGKTSIARSIARALNREYFRFSVGGMTDVAEIKGHRRTYVGAMPGKIIQCLKKTKTENPLILIDEVDKIGRGYQGDPSSALLELLDPEQNANFLDHYLDVPVDLSKVLFICTANVTDTIPEPLRDRMEMINVSGYVAQEKLAIAERYLVPQARALCGLDESKAKLSSDVLTLLIKQYCRESGVRNLQKQVEKVLRKSAYKIVSGEAESVEVTPENLQDFVGKPVFTVERMYDVTPPGVVMGLAWTAMGGSTLFVETSLRRPQDKDAKGDKDGSLEVTGQLGEVMKESARIAYTFARAFLMQHAPANDYLVTSHIHLHVPEGATPKDGPSAGCTIVTALLSLAMGRPVRQNLAMTGEVSLTGKILPVGGIKEKTIAAKRAGVTCIVLPAENKKDFYDLAAFITEGLEVHFVEHYREIFDIAFPDEQAEALAVER
A word on the Kd: it is the concentration at which binding is half-saturated. In the case of B1, the dissociation constant (Kd) with TFAM was 2200 nM.

The term stoichiometry N denotes the number of molecules, sites or subunits per partner or assembly. Turning to B2, the “stoichiometry N” value in data set [1] is 6.

B3: p.(Tyr565His) LonP1 mutant lacking the mitochondrial targeting sequence, C-terminal 6xHis (enzyme, human, UniProt P36776-1 115-959, looked up)
chain: MTIPDVFPHLPLIAITRNPVFPRFIKIIEVKNKKLVELLRRKVRLAQPYVGVFLKRDDSNESDVVESLDEIYHTGTFAQIHEMQDLGDKLRMIVMGHRRVHISRQLEVEPEEPEAENKHKPRRKSKRGKKEAEDELSARHPAELAMEPTPELPAEVLMVEVENVVHEDFQVTEEVKALTAEIVKTIRDIIALNPLYRESVLQMMQAGQRVVDNPIYLSDMGAALTGAESHELQDVLEETNIPKRLYKALSLLKKEFELSKLQQRLGREVEEKIKQTHRKYLLQEQLKIIKKELGLEKDDKDAIEEKFRERLKELVVPKHVMDVVDEELSKLGLLDNHSSEFNVTRNYLDWLTSIPWGKYSNENLDLARAQAVLEEDHYGMEDVKKRILEFIAVSQLRGSTQGKILCFYGPPGVGKTSIARSIARALNREYFRFSVGGMTDVAEIKGHRRTHVGAMPGKIIQCLKKTKTENPLILIDEVDKIGRGYQGDPSSALLELLDPEQNANFLDHYLDVPVDLSKVLFICTANVTDTIPEPLRDRMEMINVSGYVAQEKLAIAERYLVPQARALCGLDESKAKLSSDVLTLLIKQYCRESGVRNLQKQVEKVLRKSAYKIVSGEAESVEVTPENLQDFVGKPVFTVERMYDVTPPGVVMGLAWTAMGGSTLFVETSLRRPQDKDAKGDKDGSLEVTGQLGEVMKESARIAYTFARAFLMQHAPANDYLVTSHIHLHVPEGATPKDGPSAGCTIVTALLSLAMGRPVRQNLAMTGEVSLTGKILPVGGIKEKTIAAKRAGVTCIVLPAENKKDFYDLAAFITEGLEVHFVEHYREIFDIAFPDEQAEALAVER
notes: A variant found in a patient and in ExAC; also called Y565H; hTyr565His
Regarding B3, the “stoichiometry N” value in data set [1] amounted to 6.

B4: TFAM (natural protein, UniProt Q00059 43-246, looked up)
chain: SSVLASCPKKPVSSYLRFSKEQLPIFKAQNPDAKTTELIRRIAQRWRELPDSKKKIYQDAYRAEWQVYKEEISRFKEQLTPSQIMSLEKEIMDKHLKRKAMTKKKELTLLGKPKRPRSAYNVYVAERFQEAKGDSPQEKLKTVKENWKNLSDSEKELYIQHAKEDETRYHNEMKSWEEQMIEVGRKDLLRRTIKKQRKYGAEEC
modifications: NT-547-maleimide dye on cysteine (for microscale thermophoresis)
notes: TFAM, the mitochondrial transcription and mtDNA packaging factor and a LonP1 substrate; recombinant; It was unlabelled in the proteolysis assays; also called TFAM substrate
As to B4, the Kd in data set [2] was 3220 nM; in data set [3], 2170 nM; in data set [4] it was 1360 nM; in data set [5], 1520 nM.
